Experiment: soluble on expression in E. coli; label from the status in PepcDB or PDB records

Sequence	soluble on expression in E. coli
MNINKKVTLQRIQTLTELHGAPGFEEEVKNYMTQQMAPYVDEFIENRMGGFFGVKKSKNPNAKRVMIAAHMDEIGFMITNITKNGMIQFTNLGGVANDIWQGQRLVIKNRNGDKIIGVVSNIPKHFRTGSEGAPEIKDLTLDIGAQNEDEVRERGIDIGDTIVPHTPFTQLSEHRYSAKAWDNRYGCVLAIEILELLKDIELDVDLYVGANVQEEVGLRGAKASAEMIDPDVAFVVDCSPANDVKGNQPLSGELGKGTLIRIKDGTMILKPVFRDYLLKLVEAHDIEHQYYMSPGGTDGGEIHKANIGIPTAVIGVCARYIHSTDSVFDIRDYFAARSLLSEAICNLDNNQIETLQYK	not soluble
SMGDREQLLQRARLAEQAERYDDMASAMKAVTELNEPLSNEDRNLLSVAYKNVVGARRSSWRVISSIEQKTMADGNEKKLEKVKAYREKIEKELETVCNDVLSLLDKFLIKNCNDFQYESKVFYLKMKGDYYRYLAEVASGEKKNSVVEASEAAYKEAFEISKEQMQPTHPIRLGLALNFSVFYYEIQNAPEQACLLAKQAFDDAIAELDTLNEDSYKDSTLIMQLLRDNLTLWTSDQQDEEAGEGN	soluble
MAHHHHHHMRLHLPGRRDTRTASTGSSPVASLFLQKPIIFRKVAHGSASTILNVKRLELVLLETQSDQGKSEPDIQRLHWLTPHKLHQVHNDRITTATLQKNKVHSGYQFVLHIVQVSLEFLYRQKKAIILQLAERTLHERIFGGAKQLYHHQRAAGGGGK	not soluble
MERVNGEDIWQDREIRFDVDHKLLRLINGEIQVAKIEHVEDTKGNNGDRGTMRVTNLRLIWHAASMPRINITIGWNAITGVQSKQTTSLVTRNRGISNEAIYVLAKVSATTTKFEFIFTTTNPASHSKLFNTISSISRAYETTKMYRELKMRGVFIREDGTLKILPQETIIEKVNGVWNLSTETGSLGVFVITNIRVVWYAEMNIGYNVSVPYITLYSVRVRESKFGMALVLETTTSSGEYVLGFRVDPAERLQNLLKTVQSLHKAHLLKPIFGVSYVKEIAEKVEPRKDDDEIDIIDNNEDDVEIDDKIRPDAFASYFDGEHTATDEKQLPVLNPELGLAIEPIRNGFTLHDLWNIHVDV	not soluble
MAMTKNTRFSPEVRQRAVRMVLESQGEYDSQWATICSIAPKIGCTPETLRVWGLRQHERDTGGGDGGLTTAERQRLKEPERENRELRRSNDILRQASAYFAKAEFDRLWKKLEHHHHHH	soluble
MRLEIAEKYMAEAYEYLKKGDTIQASGKAYKVAEEIVKAIKFLISKLIGQDVGVISPYRTQVRKLDQELANYKPYVEVNTVDAFQGREKDVIIFSVTATNGLRFVTNRRRLNVAFTRPRYKLIVLGNENSIMSCQMTIC	soluble
MTEHTAPTAPVADVCLLLEGTWPYVRGGVSSWVNQLILGLPDLTFSVFFIGGQKDAYGKRHYPIPDNVLHIEEHFLETAWSSPNPQTRQGSSETEKALRDLHRFFHYPETPDVEEGDALLDLLAEGRIGREDFLHSKASWEAITAGYERYCTDPSFVNYFWTLRSMQAPVFMLAEAARRMPRARMLHSISTGYAGLLGCILQRRWGCRYLLSEHGIYTKERKIDLAQANWIAENPDEQLSTGLDAEVSYIRRLWIRFFERVGLLTYRAANPIVALYEGNRQRQVLDGAEPRRTRVIPNGIDLDAWTGALERRPPGIPPVVGLVGRVVPIKDVKTFIRAMRGVVSAMPEAEGWIVGPEEEDPDYASECRSLVASLGLQDKVKFLGFRRIGEVLPQLGLMVLTSISEAQPLVILEAWAAGAPVVSSDVGSCRELIEGADAEDRALGRAGEVVAIADPQATSRAILALLRNPQRWQAAQAVGLQRVERYYTEALMLGRYRGLYREATEIA	not soluble
MDLLFGRRKTPEELLRQNQRALNRAMRELDRERQKLETQEKKIIADIKKMAKQGQMDAVRIMAKDLVRTRRYVRKFVLMRANIQAVSLKIQTLKSNNSMAQAMKGVTKAMGTMNRQLKLPQIQKIMMEFERQAEIMDMKEEMMNDAIDDAMGDEEDEEESDAVVSQVLDELGLSLTDELSNLPSTGGSLSVAAGGKKAEAAASALADADADLEERLKNLRRD	soluble
MKKEKAIVVFSGGQDSTTCLLWALKEFEEVETVTFHYNQRHSQEVEVAKSIAEKLGVKNHLLDMSLLNQLAPNALTRNDIEIEVKDGELPSTFVPGRNLVFLSFASILAYQIGARHIITGVCETDFSGYPDCRDEFVKSCNVTVNLAMEKPFVIHTPLMWLNKAETWKLADELGALDFVKNNTLTCYNGIIADGCGECPACHLRSKGYEEYMVMKGERA	soluble
MGSDKIHHHHHHMIRVLVLYFTRGGHTAKIASAIADQLKNRGAQVDLVDINSAAATRINWPDYQVVALGACVLYGTYDKTVFQFIEQHNQALSALPNSFFCVNVVARNPEKRIPENNKYLQKFIALSPWTPADLKIIAGKVDYPSWPWYDRLAIQLIMKMTKGPTDPKSVIDYTDWEDVKIYADHLLDLTEVTATT	not soluble
MGSDKIHHHHHHMKTYDWIVVGGGMTGAVLAYELVKTGFSVLLLEKDAVAENATRYSYGGLAYWSGSTPLTRQLCQEARDRYNILPQELDADIELRELDLLLTIPADSDPQVTAELYAQCAVPPCLLSVPEACELELLLNPGAIAGALTVKHGHIHPQKTVQAYIQAFLRAGGELQIGEVSQVTSGGVKTTTVTYHSANVVVCAGGLSRRLLKSVGVSIKVYFTHAEIIETPPVDLRLNTLVMPANLQRFKLESTSTEVDELWNKPGNQLAPPILDAGAIQFLDGSLRLGQISRVLTDVDAYINHEESEDWLRQSISHILPILGNLPGNWHHCLVAFSSNSLPVIGVISELPGVHIFSGFSNPLVLIPPLAQRFAKFLSGTEDDIIPQFSDFLILTGS	not soluble
MREDHSPRRNNTIENTLTELLPNRLYFGCFPNPDAIDKSDKSVKKTCFININNKFHYEPFYEDFGPWNLSVLYRLCVQVGKLLEVEEKRSRRVVLFCQDDGTGQYDKIRVNTAYVLGAYLIIYQGFSADDAYLKVSSGETVKFVGFRDASMGSPQYLLHLHDVLRGIEKALKFGWLDFSDFDYEEYEFYERVENGDFNWIIPGKILSFCGPHNESREENGYPYHAPDVYFDYFRENKVSTIVRLNAKNYDASKFTKAGFDHVDLFFIDGSTPSDEIMLKFIKVVDNTKGGVAVHCKAGLGRTGTLIACWMMKEYGLTAGECMGWLRVCRPGSVIGPQQPYLIEKQKFCWSLSQSNGVHLTQNKEEKRNVRRLVNQVDDINLGEERISPKSRENTRPNILRRRVQVQNGRSTAPVTIAPAGTSESRRSTKPSRVVDETALDDQGRSQGDRLLQLKAKHQHESETTSPNSSSSRRFVKSSTPQMTVPSQAYLNRNREPIIVTPSKNGTSSGTSSRQLKTTPNGNVAYRTRNSSGNTTSTLTRTPASAVFPSMASRRSETTRYLSPTTPIKPMSPSYTDGTSPRYKARLRSENPIGSTTSTPFSLQPQFGLVRVPPDSPHSIMAHRPPPTTSSRAPLSPHNYSTTQGYSTSSRGLYGDKKPLARGSVSTSTLPSMYMTRKMSENGAVEVEITTSYVEDRKAAEQIDPSSTPPEPKRRFVLVSRKIVSKEVPSAGPTCSNDPRLNYASTRKLPIKISHRLCQICRTIKPIADISMMTDENEKLFILLAAIFQRKLFVEECTRIYKQPAVYTCSSHYSEASTAILNMFGVGGALRIFRARPRKVSQVEKFASHLMGKQFEEDKLIHSAYMFVLNHPEAGAVTGPIIKEEDIPFEETVECSSTTAVNGILPKCFRQPRKQKLEEDSCSSSILRIIKKTTPSLPNRSYTMINQNMEHPLQCCYCLEVYEKRYMTQVPKTEQRIARWVAILGEQFRIRLRMKPANYMCRKHFPQADFSSRGRLLKTAVPNVVSQEKVLAFKLEGNTFVEVKEDNTNIKMEKGTDSEIDIEN	not soluble
PNSKLARFHASSGTTGKPTVVGYTHKDIDNWAESLARALTSVGVGKEDILQVSYGYGLFTGGLGAHYGSEKVGATVLPTSSGNTERQLELMKDLGTTSIACTPSYFLYMIETARKEGINIRNDTKLRKGFFGAEPWSEELKRRIEEESGIKAYDIYGTSELSGPLFTECDEQ	not soluble
MVDYHYFKSKLNHFYGRYVGYNQRPVFFDIDQTFPELNHITRHFPDIKREFENVQANVKEFPRYHDIDPGESAISNTTEKNWNVFMLYLLGYQLKEARLLCPELCNLLEGIPHLIQAFFSILEPGKSIPLHEGPYIGYLRYHLGIHVPQNNPPQILVNNQTYTWKEGEAVLFDDSWPHEVRNTSDDYRAVLIIDVLRPMPFLPQLVNQFVTHVIARYFYGRKVMKRAMQYGGEVKPLAL	not soluble
AHHHHHHGSLVVKDLNVEYDNVKVLKGISFALNSGEKAIILGTNGAGKTTLLKSLLGLIPIKSGKIQICGKPYEKVVGEKKVSTNLESVYKLVYSIKVSELIDLYCDLKEIPSQQILNFIKEMKLEHILEKKFYNLSSGEKKCLTNLLAFFTDSKLILLDEPFEGLDPWRTNKTVEILNSLKSSIIMTTHRLDILSKFSTFKVYFLFNGHLYGPIRSASDLVNCYVTFSDIEEGESDIVLRIQGDKKNVILTRRPIGQKISDYASIDEIYRVMLE	not soluble
ELASDVYNKRIWIKDMQADKGKVQLMKGLYWYFDKDPHLLLGGGTGGGKTFTILSLIYALCRVGEMEICDPKNSDLMALGKLPMFAGKVHTGKTDIVNCLKNAVELMNARFEMMNNSPDYKMGKNYAYYGLKPKFIVIDEFAAFKAELANDYSTDGEVDEYLTQLILKARQCGIFLIVAMQRPDG	not soluble
MGSDKIHHHHHHMERYNTMSGKKTESSDNIVLYPGLVKRLIEKGMEALKEKDAKKALTMFEQAEQYDAEPSQILFGKALCYVELGKLDDAVLLTDQMLRNDIGNYYDILQIHLSLLVQLGRYDEVVEMLDVVLAEDRLPAKHAESFYQLLHFSRQMVEDSPTYIKEPLSEELDLKETYDDINERDSLEQWHFLQQMRKHNNPADIRTLLSFVESESNDPALRSYALHMLTMHKVEKRVRIRKFDQEAEVIPVELNADEQQRFGNAVVEQLEARLAVENPSLFKMAEQLWWQFLYALYPFTPKPEQKDLWAGAVHVAVHESNGLPFDEEEIAGMYNCRVQQMLEKGEEIHFVETETFQGISGHSFR	not soluble
MITCLIVDDELFAREELADSLSQEADIEIIGQCSNAIEALQTITKEKPQLVFLDIQMPRISGMELIAMLDPDTLPKIVFVTAFDEFAVKAFDNHAFDYLLKPIDADRLSKTLKRVRKDLTPQAVNLIAPRSLEHLPCYSGSKLKVIPIQDVEYVFSDLSGIHVACTKGKVHTQLTLKVLEEKTPLVHCHRQYLISPKAIAEIELLDTGAEVTTLLGDKVPVSRRYLKSLKQLFGFQ	not soluble
MDIEERINLVLKKPTEEVLTVENLRHLFEIGAPLQHYIGFEISGYIHLGTGLMAGAKIADFQKAGIKTRVFLADWHSWINDKLGGDLEVIQEVALKYFKVGMEKSIEVMGGDPKKVEFVLASEILEKGDYWQTVIDISKNVTLSRVMRSITIMGRQMGEAIDFAKLIYPMMQVADIFYQGVTIAHAGMDQRKAHVIAIEVAQKLRYHPIVHEGEKLKPVAVHHHLLLGLQEPPKWPIESEEEFKEIKAQMKMSKSKPYSAVFIHDSPEEIRQKLRKAFCPAREVRYNPVLDWVEYIIFREEPTEFTVHRPAKFGGDVTYTTFEELKRDFAEGKLHPLDLKNAVAEYLINLLEPIRRYFEKHPEPLELMRSVKITR	soluble
MNGIHDVGGMDGFGKVMYVKEEEDIYFTHDWERLALGLVAGCMAQGLGMKAFDEFRIGIELMRPVDYLTSSYYGHWIATVAYNLVDTGVLDEKELDERTEVFSKKPDTKIPRREDPALVKLVEKALNDGLSPLREISASPRFKVGERIKTKNIHPTGHTRFPRYARDKYGVIDEVYGAHVFPDDAAHRKGENPQYLYRVRFEAEELWGYKQKDSVYIDLWESYMEPVSH	soluble
